Measurements reported in CN114316037A.

Substrate: O型口蹄疫病毒灭活抗原 (Foot-and-mouth disease virus, serotype O (strain not stated))

B1: 单克隆抗体m19 (O型口蹄疫病毒结构蛋白的单克隆抗体m19) (antibody, V domains shown)
VH: QVQLQQPGSELVRPGASVNLSCKASGYTFPSYWMHWVKQRPGQGLEWIGNIFPDGGFTNYDENFKSRATLTVDTSSSTAYMQLSSLTSEDSAVYYCTTIYDYVVGVGAMDYWGQGTSVTVSS
VL: DIVMTQSPAIMSASPGEKVTITCSASSSISYMYWFQQKTGTSPKLWIYKTSDLASGVPARFSGSGSGTSYSLTISRMEAEDAATYYCQQRNSYTFGGGTKLELK
**Q.** With B1 as the binder, how does the 最佳使用浓度 (concentration giving OD450 of 1.6) read?
**A.** 7 µg/mL
